Reference: the RNAGym collection of RNA variant scans (doi:10.7554/elife.90254)

B1: OR4K15 (parent)
chain: GUUAACGGUCAUAGGCCAUGGAAACUAGGAGCACCAUUUCGCUGCCAGUGAAGAAAUGAACAAAGAAAAUCUGGGCCAGGCAGGCAUCAAAAGAAAUAGUCUUGCGCUCAACCAGAAAGUCUGUAAUCAUUUUAAGGGUA

Variants of: B1
Assay: self-cleavage, relative activity (ratio to wild type); higher = more cleavage; in vitro, sequencing; the parent is a self-cleaving ribozyme
With GUUAACGGUCAUAGGCCAUGGAAACUAGGAGCACCAUUUCGCUGCCAGUGAUGAAAUGAACAAAGAAAAUCUGGGCCAGGCAGGCAUCAAAAGAAAUAGUCUUGCGCUCAGCCAGAAAGUCUGUAAUCAUUUUAAGGGUA [A52U A111G] the self-cleavage was 0.01.
Variant GUUAACGGUCAUAGGCCAUGGAAACUAGGAGCACCAUUUCGCUGCCAGUGAUGAAAUGAACAAAGAAAAUCUGGGCCAGGCAGGCAUCAAAAGAAAUAGUUUUGCGCUCAACCAGAAAGUCUGUAAUCAUUUUAAGGGUA [A52U C101U] has a self-cleavage of 0.19.
For GUUAACGGUCAUAGGCCAUGGAAACUAGGAGCACCAUUUCGCUGCCAGUGAUGAAAUGAACAAAGAAAAUCUGGGCCAGGCAGGCAUCAAAAGAAAUAGUCUUGCGCUCAACCAGAAAGUCUGUAGUCAUUUUAAGGGUA [A52U A126G], the self-cleavage was 1.31.
GUUAACGGUCAUAGGCCAUGGAAACUAGGAGCACCAUUUCGCUGCCAGUGAGGAAAUGAACAAAGAAAAUCUGGGCCAGGCAGGCAUCAAAAGAAAUAGUCUUGCGCUCAACCAGAAAGUCUGUAAUCAUUCUAAGGGUA [A52G U132C] gave a self-cleavage of 1.84.
Work on GUUAACGGUCAUAGGCCAUGGAAACUAGGAGCACCAUUUCGCUGCCAGUGAGGAAAUGAACAAAGAAAAUCUGGGCCAGGCAGGCAUCAAAAGAAAUAGUCUUGCGCUCAACCAGAAAGUCUGUAAUCAUUAUAAGGGUA [A52G U132A] yielded a self-cleavage of 0.88.
Variant GUUAACGGUCAUAGGCCAUGGAAACUAGGAGCACCAUUUCGCUGCCAGUGAUGAAAUGAACAAAGAAAAUCUGGGCCAGGCAGGCAUCAAAAGGAAUAGUCUUGCGCUCAACCAGAAAGUCUGUAAUCAUUUUAAGGGUA [A52U A94G] has a self-cleavage of 1.52.
For GUUAACGGUCAUAGGCCAUGGAAACUAGGAGCACCAUUUCGCUGCCAGUGAUGAAAUGAACAAAGAGAAUCUGGGCCAGGCAGGCAUCAAAAGAAAUAGUCUUGCGCUCAACCAGAAAGUCUGUAAUCAUUUUAAGGGUA [A52U A67G], the self-cleavage was 0.87.
Variant GUUAACGGUCAUAGGCCAUGGAAACUAGGAGCACCAUUUCGCUGCCAGUGAUGAAAUGAACAAGGAAAAUCUGGGCCAGGCAGGCAUCAAAAGAAAUAGUCUUGCGCUCAACCAGAAAGUCUGUAAUCAUUUUAAGGGUA [A52U A64G] has a self-cleavage of 1.71.
GUUAACGGUCAUAGGCCAUGGAAACUAGGAGCACCAUUUCGCUGCCAGUGAGGAAAUGAACAAAGAAAAUCUGGGCCAGGCAGGCAUCAAAAGAAAUAGUCUUGCGCUCAACCAGAAAGUCUGUAAACAUUUUAAGGGUA [A52G U127A] gave a self-cleavage of 1.73.
GUUAACGGUCAUAGGCCAUGGAAACUAGGAGCACCAUUUCGCUGCCAGUGAUGAAAUGAACAAAGAAAAUCUGGGCCAGGCAGGCAUCAAAAGAAAUAGUCUUGCGCUCAACCAGAAAGUCUGUAAUCAUUUUUAGGGUA [A52U A134U] gave a self-cleavage of 1.41.
For GUUAACGGUCAUAGGCCAUGGAAACUAGGAGCACCAUUUCGCUGCCAGUGAUGAAAUGAACAAAGAAAAUCUGGGCCAGGCAGGCAUCAAAAGAGAUAGUCUUGCGCUCAACCAGAAAGUCUGUAAUCAUUUUAAGGGUA [A52U A95G], the self-cleavage was 1.48.
In the case of GUUAACGGUCAUAGGCCAUGGAAACUAGGAGCACCAUUUCGCUGCCAGUGAUGAAAUGAACAAAGAAAAUCUGGGCCAGGCAGGCAUCAAAAGAAAUAGUCUUGCGCUCGACCAGAAAGUCUGUAAUCAUUUUAAGGGUA [A52U A110G], the self-cleavage is reported as 0.19.
GUUAACGGUCAUAGGCCAUGGAAACUAGGAGCACCAUUUCGCUGCCAGUGAGGAAAUGAACAAAGAAAAUCUGGGCCAGGCAGGCAUCAAAAGAAAUAGUCUUGCGCUCAACCAGAAAGACUGUAAUCAUUUUAAGGGUA [A52G U120A] showed a self-cleavage of 2.19.
GUUAACGGUCAUAGGCCAUGGAAACUAGGAGCACCAUUUCGCUGCCAGUGAGGAAAUGAACAAAGAAAAUCUGGGCCAGGCAGGCAUCAAAAGAAAUAGUCUUGCGCACAACCAGAAAGUCUGUAAUCAUUUUAAGGGUA [A52G U108A] gave a self-cleavage of 0.02.
GUUAACGGUCAUAGGCCAUGGAAACUAGGAGCACCAUUUCGCUGCCAGUGAGGAAAUGAACAAAGAAAAUCUGGGCCAGGCAGGCAUCAAAAGAAAUAGUCUUGCGCCCAACCAGAAAGUCUGUAAUCAUUUUAAGGGUA [A52G U108C] gave a self-cleavage of 0.02.
With GUUAACGGUCAUAGGCCAUGGAAACUAGGAGCACCAUUUCGCUGCCAGUGAGGAAAUGAACAAAGAAAAUCUGGGCCAGGCAGGCAUCAAAAGAAAUAGUCUUGCGCGCAACCAGAAAGUCUGUAAUCAUUUUAAGGGUA [A52G U108G] the self-cleavage was 0.03.
With GUUAACGGUCAUAGGCCAUGGAAACUAGGAGCACCAUUUCGCUGCCAGUGAUGAAAUGAACGAAGAAAAUCUGGGCCAGGCAGGCAUCAAAAGAAAUAGUCUUGCGCUCAACCAGAAAGUCUGUAAUCAUUUUAAGGGUA [A52U A62G] the self-cleavage was 1.23.
GUUAACGGUCAUAGGCCAUGGAAACUAGGAGCACCAUUUCGCUGCCAGUGAUGAAAUGAACAAAGAAAAUCUGGGCCAGGCAGGCAUCAAAAGAAAUAGUCUUGCGCUCAACCAGAAAGUCUGUAAUCAUUUUAAGGGUG [A52U A140G] gave a self-cleavage of 0.56.
In the case of GUUAACGGUCAUAGGCCAUGGAAACUAGGAGCACCAUUUCGCUGCCAGUGAGGAAAUGAACAAAGAAAAUCUGGGCCAGGCAGGCAUCAAAAGAAAUAGUCUUGCGCUCAACCAGAAAGUCCGUAAUCAUUUUAAGGGUA [A52G U122C], the self-cleavage is reported as 1.45.
GUUAACGGUCAUAGGCCAUGGAAACUAGGAGCACCAUUUCGCUGCCAGUGAUGAAAUGAACAAAGAAAAUCUGGGCCAGGCAGGCAUCAAGAGAAAUAGUCUUGCGCUCAACCAGAAAGUCUGUAAUCAUUUUAAGGGUA [A52U A91G] showed a self-cleavage of 1.13.
With GUUAACGGUCAUAGGCCAUGGAAACUAGGAGCACCAUUUCGCUGCCAGUGAUGAAAUGAACAGAGAAAAUCUGGGCCAGGCAGGCAUCAAAAGAAAUAGUCUUGCGCUCAACCAGAAAGUCUGUAAUCAUUUUAAGGGUA [A52U A63G] the self-cleavage was 1.73.
Variant GUUAACGGUCAUAGGCCAUGGAAACUAGGAGCACCAUUUCGCUGCCAGUGAUGAAAUGGACAAAGAAAAUCUGGGCCAGGCAGGCAUCAAAAGAAAUAGUCUUGCGCUCAACCAGAAAGUCUGUAAUCAUUUUAAGGGUA [A52U A59G] has a self-cleavage of 1.48.
Work on GUUAACGGUCAUAGGCCAUGGAAACUAGGAGCACCAUUUCGCUGCCAGUGAGGAAAUGAACAAAGAAAAUCUGGGCCAGGCAGGCAUCAAAAGAAAUAGGCUUGCGCUCAACCAGAAAGUCUGUAAUCAUUUUAAGGGUA [A52G U100G] yielded a self-cleavage of 1.16.
Work on GUUAACGGUCAUAGGCCAUGGAAACUAGGAGCACCAUUUCGCUGCCAGUGAUGGAAUGAACAAAGAAAAUCUGGGCCAGGCAGGCAUCAAAAGAAAUAGUCUUGCGCUCAACCAGAAAGUCUGUAAUCAUUUUAAGGGUA [A52U A54G] yielded a self-cleavage of 1.25.
Work on GUUAACGGUCAUAGGCCAUGGAAACUAGGAGCACCAUUUCGCUGCCAGUGAGGAAAUGAACAAAGAAAAUCUGGGCCAGGCAGGCAUCAAAAGAAAUAGUCUUGCGCUCAACCAGAAAGUCUGUAAUCAUUUUAAGGGAA [A52G U139A] yielded a self-cleavage of 1.5.
GUUAACGGUCAUAGGCCAUGGAAACUAGGAGCACCAUUUCGCUGCCAGUGAGGAAAUGAACAAAGAAAAUCUGGGCCAGGCAGGCAUCAAAAGAAAUAGUCUUGCGCUCAACCAGAAAGUCUGUAAUCAUUUUAAGGGGA [A52G U139G] showed a self-cleavage of 1.6.
With GUUAACGGUCAUAGGCCAUGGAAACUAGGAGCACCAUUUCGCUGCCAGUGAGGAAAUGAACAAAGAAAAUCUGGGCCAGGCAGGCAUCAAAAGAAAUAGUCUUGCGCUCAACCAGAAAGUCUGUAAUCAUUUUAAGGGCA [A52G U139C] the self-cleavage was 2.03.
GUUAACGGUCAUAGGCCAUGGAAACUAGGAGCACCAUUUCGCUGCCAGUGAGGAAAUGAACAAAGAAAAUCUGGGCCAGGCAGGCAUCAAAAGAAAUAGUCUAGCGCUCAACCAGAAAGUCUGUAAUCAUUUUAAGGGUA [A52G U103A] gave a self-cleavage of 0.59.
For GUUAACGGUCAUAGGCCAUGGAAACUAGGAGCACCAUUUCGCUGCCAGUGAGGAAAUGAACAAAGAAAAUCUGGGCCAGGCAGGCAUCAAAAGAAAUAGUCUUGCGCUCAACCAGAAAGUCUGUAAUCAUUUAAAGGGUA [A52G U133A], the self-cleavage was 2.06.
GUUAACGGUCAUAGGCCAUGGAAACUAGGAGCACCAUUUCGCUGCCAGUGAGGAAAUGAACAAAGAAAAUCUGGGCCAGGCAGGCAUCAAAAGAAAUAGUCCUGCGCUCAACCAGAAAGUCUGUAAUCAUUUUAAGGGUA [A52G U102C] showed a self-cleavage of 2.18.
Work on GUUAACGGUCAUAGGCCAUGGAAACUAGGAGCACCAUUUCGCUGCCAGUGAGGAAAUGAACAAAGAAAAUCUGGGCCAGGCAGGCAUCAAAAGAAAUAGUCAUGCGCUCAACCAGAAAGUCUGUAAUCAUUUUAAGGGUA [A52G U102A] yielded a self-cleavage of 0.89.
For GUUAACGGUCAUAGGCCAUGGAAACUAGGAGCACCAUUUCGCUGCCAGUGAUGAAAUGAACAAAGAAAAUCUGGGCCAGGCAGGCAUCAAAAGAAAUAGUCUUGCGCUCAACCAGGAAGUCUGUAAUCAUUUUAAGGGUA [A52U A116G], the self-cleavage was 1.
Work on GUUAACGGUCAUAGGCCAUGGAAACUAGGAGCACCAUUUCGCUGCCAGUGAUGAAAUGAACAAAGAAAAUCUGGGCCAGGCAGGCGUCAAAAGAAAUAGUCUUGCGCUCAACCAGAAAGUCUGUAAUCAUUUUAAGGGUA [A52U A86G] yielded a self-cleavage of 1.61.
Work on GUUAACGGUCAUAGGCCAUGGAAACUAGGAGCACCAUUUCGCUGCCAGUGAUGAAAUGAACAAAGAAAAUCUGGGCCAGGCAGGCAUCAAAAGAAAUAGUCUUGCGCUCAACCAGAAAGUCUGUAAUCGUUUUAAGGGUA [A52U A129G] yielded a self-cleavage of 0.81.
With GUUAACGGUCAUAGGCCAUGGAAACUAGGAGCACCAUUUCGCUGCCAGUGAUGAAAUGAACAAAGAAAAUCUGGGCCAGGCGGGCAUCAAAAGAAAUAGUCUUGCGCUCAACCAGAAAGUCUGUAAUCAUUUUAAGGGUA [A52U A82G] the self-cleavage was 1.09.
Work on GUUAACGGUCAUAGGCCAUGGAAACUAGGAGCACCAUUUCGCUGCCAGUGAUGAAAUGAACAAAGAAAAUCUGGGCCAGGCUGGCAUCAAAAGAAAUAGUCUUGCGCUCAACCAGAAAGUCUGUAAUCAUUUUAAGGGUA [A52U A82U] yielded a self-cleavage of 0.2.
With GUUAACGGUCAUAGGCCAUGGAAACUAGGAGCACCAUUUCGCUGCCAGUGAGGAAAUGAACAAAGAAAAUCUGGGCCAGGCAGGCAUCAAAAGAAAUAGUCUUGCGCUCAACCAGAAAGUCUGUAAUCACUUUAAGGGUA [A52G U130C] the self-cleavage was 0.75.
GUUAACGGUCAUAGGCCAUGGAAACUAGGAGCACCAUUUCGCUGCCAGUGAGGAAAUGAACAAAGAAAAUCUGGGCCAGGCAGGCAUCAAAAGAAAUAGUCUUGCGCUCAACCAGAAAGUCUGUAAUCAAUUUAAGGGUA [A52G U130A] showed a self-cleavage of 1.08.
For GUUAACGGUCAUAGGCCAUGGAAACUAGGAGCACCAUUUCGCUGCCAGUGAGGAAAUGAACAAAGAAAAUCUGGGCCAGGCAGGCAUCAAAAGAAAUAGUCUUGCGCUCAACCAGAAAGUCUGUAAUCAGUUUAAGGGUA [A52G U130G], the self-cleavage was 0.81.
With GUUAACGGUCAUAGGCCAUGGAAACUAGGAGCACCAUUUCGCUGCCAGUGAGGAAAUGAACAAAGAAAAUCUGGGCCAGGCAGGCAUCAAAAGAAAGAGUCUUGCGCUCAACCAGAAAGUCUGUAAUCAUUUUAAGGGUA [A52G U97G] the self-cleavage was 1.31.
Variant GUUAACGGUCAUAGGCCAUGGAAACUAGGAGCACCAUUUCGCUGCCAGUGAGGAAAUGAACAAAGAAAAUCUGGGCCAGGCAGGCAUCAAAAGAAACAGUCUUGCGCUCAACCAGAAAGUCUGUAAUCAUUUUAAGGGUA [A52G U97C] has a self-cleavage of 1.07.
